The experiment addresses T1, human B7-H4 at the cell surface (human, UniProt Q7Z7D3 25-282).
T1 sequence (looked up): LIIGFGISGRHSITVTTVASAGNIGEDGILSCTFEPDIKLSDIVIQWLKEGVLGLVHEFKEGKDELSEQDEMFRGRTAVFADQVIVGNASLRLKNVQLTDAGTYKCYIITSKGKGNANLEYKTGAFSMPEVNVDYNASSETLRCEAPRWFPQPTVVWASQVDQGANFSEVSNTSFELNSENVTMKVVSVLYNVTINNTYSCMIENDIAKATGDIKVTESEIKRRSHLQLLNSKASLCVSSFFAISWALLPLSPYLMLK
Put plainly: cell-based or functional assay.

B1: anti-B7H4 scFv clone 3#68 (scFv)
scFv: QPGLTQPPSASGTPGQRVTISCSGSSSNIGSNYVYWYQQFPGTAPKLLIYRNNQRPSGVPDRFSGSKSGTSASLAISGLRSEDEADYYCAAWDDSLSVWVFGGGTKVTVLGGSSRSSSSGGSGSGGGGQVTLKESGAEVKNPGSSVKVSCKASGGTFSSYAISWLRQAPGQGLEWMGWINPNSGGSDYAQRFQGRVTMTRDTSINTVYMELSRLRSDDTAVYYCARVEKRGYYYGMDVWGQGTMVTVSSFEGSEQ
Consider B1, for which the “IFN-γ production of MART-1 TCR T cells in presence of B7-H4+ TAMs” value was greater than 2 folds.

B2: anti-B7H4 scFv clone 3#54 (scFv)
scFv: RPVLTQPPSAAGTPGQRVTISCSGSSSNIGSNYVYWYQQLPGMAPKLLIYTNNQRPSGVPGRFSGSKSGTSASLAISGLRSEDEADYYCAAWDDSLNGWVFGGGTELTVLGGSSRSSSSGGGGSGGGGQVQLQESGPGLVKPSETLSLTCNVSGRSVSSGFYWSWIRQRPGKGLEWVGSIYRSGLTYYNPSLKSRVTISVDTSKNQFSLKLSSVTAADTAVYYCARATPWYYYGMDVWGQGTTVTVSSFEGSEQ
Turning to B2, the “IFN-γ production of MART-1 TCR T cells in presence of B7-H4+ TAMs” value was greater than 2 folds.

The record behind these values is US20140308259A1 (University of Pennsylvania, published 2014).
